Test results reported in publication PMC4500961, “H2O2 production rate in Lactobacillus johnsonii is modulated via the interplay of a heterodimeric flavin oxidoreductase with a soluble 28 Kd PAS domain containing protein” (Frontiers in Microbiology, 2015).

Experiments:
[1] = target: FRedB fused to the zinc finger DNA-binding domain of murine Zif268 (pACTR-fredB) (Lactobacillus johnsonii N6.2); experiment: two-hybrid; bacterial two-hybrid in E. coli KDZifΔZ (ω subunit fusion and Zif268 fusion), 10 μM IPTG, β-galactosidase activity with CPRG in arbitrary units; static or aerobic growth
[2] = target: T1, FRedA/B (Lactobacillus johnsonii, UniProt A0A7D9N7Z8+A0A7D9N811); experiment: isothermal titration calorimetry; type: binding
T1 construct: gene T285_08435; full-length, both chains N-terminal His6, co-expressed and co-purified from E. coli BL21 (p15TV-fredA + pCDF-his-fredB); heterodimer 43 kDa
Excerpt: isothermal titration calorimetry on FRedA/B | FMN binding to the FRedA/B heterodimer is an exergonic reaction

[3] = target: His6-FRedB (putative FMN reductase FRedB of Lactobacillus johnsonii N6.2, from p15TV-fredB, individually purified) (Lactobacillus johnsonii N6.2)
[4] = substrate: NC(=O)C1=CN([C@@H]2O[C@H](COP(=O)(O)OP(=O)(O)OC[C@H]3O[C@@H](n4cnc5c(N)ncnc54)[C@H](O)[C@@H]3O)[C@@H](O)[C@H]2O)C=CC1; experiment: purified protein; type: biochemical, Lactobacillus johnsonii; conditions: fixed flavin electron acceptor, 100 mM MES pH 5.5, 37 °C
[5] = substrate: Cc1cc2nc3c(=O)[nH]c(=O)nc-3n(C[C@H](O)[C@H](O)[C@H](O)COP(=O)(O)OP(=O)(O)OC[C@H]3O[C@@H](n4cnc5c(N)ncnc54)[C@H](O)[C@@H]3O)c2cc1C; experiment: purified protein; type: biochemical, Lactobacillus johnsonii; conditions: fixed NADH, 100 mM MES pH 5.5, 37 °C
[6] = substrate: Cc1cc2nc3c(=O)[nH]c(=O)nc-3n(C[C@H](O)[C@H](O)[C@H](O)COP(=O)(O)O)c2cc1C; experiment: purified protein; type: biochemical, Lactobacillus johnsonii; conditions: fixed NADH, 100 mM MES pH 5.5, 37 °C

FRedA fused to the ω subunit of E. coli RNA polymerase (pBR-fredA) (natural protein)
β-galactosidase activity [1]: 11700 AU

Cc1cc2nc3c(=O)[nH]c(=O)nc-3n(C[C@H](O)[C@H](O)[C@H](O)COP(=O)(O)O)c2cc1C [FMN]
Kd [2]: 1960 ± 130 nM

His6-FRedA (putative FMN reductase FRedA of Lactobacillus johnsonii N6.2, from p15TV-fredA) (natural protein)
initial rate (V0) of NADH oxidase activity, FRedB preincubated with purified LjPAS (reduced by 50%) (μmol min^-1 mg^-1) [3]: 2.6 | initial rate (Vo) of NADH oxidase activity, both monomers combined and incubated with FMN before addition of NADH (μmol min^-1 mg^-1) [3]: 31.3 | initial rate of NADH oxidase activity, FRedA preincubated with FMN before addition of FRedB (μmol min^-1 mg^-1) [3]: 0.27 | initial rate of NADH oxidase activity, FRedB preincubated with FMN before addition of FRedA (μmol min^-1 mg^-1) [3]: 6.48 | initial rate of NADH oxidase activity, purified LjPAS added after FRedA and FRedB were preincubated with FMN (not significantly slower) (μmol min^-1 mg^-1) [3]: 25.2

B1: FRedA/B (Lactobacillus johnsonii N6.2) (protein)
chain 1: MKLLAIVGTNADFSYNRFLDQFMAKRYKDQAEIEVYEIADLPRFKKEAQPDSKVEEFKNKIREADGVIFATPEYDHGIPSALKSAMEWTGSHAQGNADVMKMKPAMVLGTSYGIQGASRAQEEMREILLSPDQSANVLPGNEVLIGHAADKFDKNTGDLLDQETIHAIDLAFNNFVKFVEQAQK
chain 2: MKLFAIVGSNADHSYNRDLLNFIKKHFTDRYDIELGEVKDLPMFKEGVKEPAAVASFAKKVADADAVLISTPEQQHSVPSSLKSALEWLSSAEHPFKDKPVVIVGTSVLPQGSARGQSHLKLVLSSPGFGAKVFNGDEFMMGTAPEQFDENGNLPAGTVKFLDHFFDEFDSFYAEVSK
notes: full-length, both chains N-terminal His6, co-expressed and co-purified from E. coli BL21 (p15TV-fredA + pCDF-his-fredB); heterodimer 43 kDa
Km [4]: 59.68 ± 5.8 µM | Vmax [4]: 185 µmol/min/mg | kcat [4]: 132 s⁻¹ | kcat/Km [4]: 2.22e+06 M⁻¹ s⁻¹ | Km [5]: 19.85 ± 2.5 µM | Vmax [5]: 67 µmol/min/mg | kcat [5]: 48 s⁻¹ | kcat/Km [5]: 2.42e+06 M⁻¹ s⁻¹ | Km [6]: 20.36 ± 2.6 µM | Vmax [6]: 204 µmol/min/mg | kcat [6]: 146 s⁻¹ | kcat/Km [6]: 7.16e+06 M⁻¹ s⁻¹
